The target of experiment [1] is RcATXR5 (ATXR5 SET domain) (Ricinus communis, UniProt B9RU15). It counts as binding.
Experiment [2] addresses nucleosome core particle (Xenopus laevis recombinant histone octamer on 147 bp 601 DNA) (Xenopus laevis). In words: native gel or EMSA.
The target in experiment [3] is T1, SET domain of Ricinus communis ATXR5 (a.a. 158-374) (Ricinus communis, UniProt B9RU15 158-374).
T1 sequence: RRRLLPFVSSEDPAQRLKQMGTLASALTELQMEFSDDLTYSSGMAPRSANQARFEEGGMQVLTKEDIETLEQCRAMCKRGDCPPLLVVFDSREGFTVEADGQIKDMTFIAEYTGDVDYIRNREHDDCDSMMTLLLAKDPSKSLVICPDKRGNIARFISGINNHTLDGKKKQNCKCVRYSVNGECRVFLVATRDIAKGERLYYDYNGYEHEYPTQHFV
In words: crystal structure.

Square brackets hold non-standard residues; d marks the D form. Ends that are not written are not given here. Arg(Me2a) = CN(C)C(=N)NCCC[C@H](N)C(=O)O; Lys(Me3) = C[N+](C)(C)CCCC[C@H](N)C(=O)O

As a reminder, the Kd is the equilibrium constant for the complex coming apart.

For the molecule `Nc1ncnc2c1ncn2[C@@H]1O[C@H](C[C@@H](N)CC[C@H](N)C(=O)O)[C@@H](O)[C@H]1O` [SFG, sinefungin], the “GST pull-down, compound-dependent association with GST-PHD” value in experiment [1] was “PHD domain of ATXR5 senses the binding of sinefungin to the SET domain”.
As to “full-length Glycine max ATXR5 (a.a. 1-334) (enzyme)”, the Kd in experiment [2] worked out at 380 nM.
As to KQLATKAA[Arg(Me2a)]KSAPATGGVKY (not fully specified) [histone H3.1 peptide (a.a. 18-36) R26me2a], the binding result in experiment [3] is given as “binds”.
Regarding KQLATKAARKSAPATGGV[Lys(Me3)]Y [histone H3.1 peptide (a.a. 18-36) K36me3], in experiment [3], the binding result is “binds”.
Same read-out and setting: then KQLATKAA[Rme1]KSAPATGGVKY [histone H3.1 peptide (a.a. 18-36) R26me1], with “binds”.
